Source: US20140287419A1, “Compositions Having Dicamba Decarboxylase Activity and Methods of Use” (priority 2013, published 2014)

Assay: 14C assay with IPTG-induced recombinant E. coli cells (14CO2 capture from [14C]-carboxyl-labeled dicamba)
Conditions: for Dicamba Decarboxylase Activity: IPTG-induced recombinant E. coli cells, [14C]-carboxyl-labeled dicamba, 14CO2 capture; for Enzymatic Detection level: dicamba decarboxylation activity of the protein of the given SEQ ID NO

Molecule	Dicamba Decarboxylase Activity	Enzymatic Detection level
75 (protein, listed as Ectocarpus siliculosus) MAKIDSYTHFACPAFMDHLEAESGHPMVFRGLFSSIPELSDIDLRIRYMDEHGIDVHCLVPLPWLECEPGLHADEGKALEACRIANDEMARVVARFPDRLIGVALIPTTTEQAMIQETTRAVKELGMAGVALFVGPTAKPPDMACFEGLYRTCEELGAVVWMHPCRPQSYADYDSYKGEGSKHQIWNTFGWIYDTSVAMVHIALAGVFRRYPGLKVVTHHHGAMVPFFTARFDTQRRNFQEVEGDDLLEDLRLFYCDTATFGESAANIQQAIDFFGKSQVLFGTDTPMDMGTRGMFTRTTIASVEALGAAPEDKESFYAGNVLDMLGERFAGISGARGAVAARPKGDSTRIAASL	Low	Low
85 (protein, listed as Maritimibacter alkaliphilus) MAADRKPGLVSVEEGFMIPEVVAELSRIAGGVPSMKSGPIAGPFMDDLLDIGKGRVARMDADGVAVQILALAAPGVQKFDPDTALALSRLTNDRLAEAIAAHPARFGGLAAAPPQAAREGAKELDRAITTLGLNGLIVNSHTNDLYLDDPSFWPLLEAAEALDVPVYLHPREPAAGIEGGLMAMTGFTVGWAYAVETGTHLLRMIAAGVFDRFPRLRIVLGHLGEMIPFMLDRIDNRYPFEMGVTGAKPLPRKPSDYFRDHVTVATSGMNFNAPMRAAIEVLGADKVMFAADYPMERQDEEVAKFAALDLTPDERKRIGEDNARRVFGL	Low	Low
79 (protein, Pyrenophora teres) MATTTTPSTLIATLESHLTPTLAFTSPTTSPTQPALHLIPPTTLTKLRNLGPGRVKDMHMLGHSRQIISHIPVAAPPQICSRFNDAIHAATMTNTAKFSVLAVLPTDGMEAAKELARCVSKYRFVGGVIGLNRGLRINGEGWEELWGLAERLRIPIMFREMWPLAFEIVDYQHHLPYSALGPILTQLHTSHTSSPLPLVRLYLSSVFDHYPSLRLVLAHPGSLPSLVPRIESLINSIPATDKPKRSFLDVWQHNIYLTTADAQDMSSLRALLEQIPVDRVLYASNYPFEERGNELMNELRESEFLTNIEWERVAWVNAETLFNLKEAGTKEARQLTTIPSSRS	High	High
87 (protein, listed as Novosphingobium sp.) MASDIATAADLQTGGRQGYLRIATEEAFATRDQIDVYLRMVRDGTADRGMTSLWGFYAQSPSARATQIIERLLDLGEQRLADMDAAGIDKAVLALTSPGVQPLLDMEEARRIAGNANDRLAERCAAHPDRFIGMTAVAPQDPQWSAREILRGATQLGFKGVQINSHTQGRYLDEPFFDPIFRALGDVGQPLYIHPGTPPDSMIGPLLDAGLDGAIYGFGVETGMHLLRLITAGIFDRYPDLQIMVGHMGEALPYWLYRLDYMHQAGIRSQRYERMRPLKRTIAGYFRSNVLVTCSGMAWEPAIQFARQVMGEDRVMYAMDYPYQYEADEVRALDVMDLSPESKRKFFQTNAERWFDL	High	High
80 (protein, listed as Cordyceps militaris) MAAASTPVVVDIHTHMYPPSYIAMLEKRQTIPLVRTFPQADEPRLILLSSELAALDAALADPAAKLPGRPLSTHFASLAQKMHFMDTNGIRVSVISLANPWFDFLAPDEAPGIADAVNAEFSDMCAQHVGRLFFFAALPLSAPVDAVKASIERVKNLKYCRGIILGTSGLGKGLDDPHLLPVFEAVADAKLLVFLHPHYGLPNEVYGPRSEEYGHVLPLALGFPMETTIAVARMYMAGVFDHVRNLQMLLAHSGGTLPFLAGRIESCIVHDGHLVKTGKVPKDRRTIWTVLKEQIYLDAVIYSEVGLQAAIASSGADRLMFGTDHPFFPPIEEDVQGPWDSSRLNAQAVIKAVGEGSSDAAAVMGLNAVRVLSLKAE	Low	Low
6 (protein, Treponema brennaborense) MAEILSPEESIYYSKLSNDILAEGIKKNPTRFRGFAALPTPDPIQAAMELERCIKLGGFVGAIINGHINGHYLDEIQFDPILEAADALDVPLYIHPAVPPKAIIDTYYKMNDTYAQTVMVSGGWGWHIETGVHVLRLISSGVFDRHPNLKIVIGHLGEGLPFFMHRLNNAIGGNLKKSYSTYLKENIYYTISGFNDPDLFQFVLKKVGENNIMFSSDYPFNFPKREVELFNELNISEEVREKISFKNAERILKI	No	No
83 (protein, listed as Mycobacterium rhodesiae) MALIALEEHYAWSPVSAGNVVGSWLETHNVTAYQRLYDRGPLRLEQMDAAGIDFQILSLFDPGVQDDDDTARAVENARRANDDLAETVRAAPDRFGGFATLAPQDPDAAAAELERAVGELGLVGGLINGHTHGRYLDDPAYLGLFECAQRLGVPIYLHPTTPHPAVMDAWFAPYVKDGLHLASWGFAAETGTHALRLIYSGLFDTFPRLQMILGHLGEMLPYAAYRIDRYYGLGGGDDGGRLARLPSEYLRDNFHVTTSGNFNPVAFACALDVMGPDRLMFSVDYPMDDNVTGAEFLRNLEVDDDVRRKVAGENALQLFGDKIPRR	Low	Low
78 (protein, listed as Marinobacter adhaerens) MALIDLHAHAPHPDYYDQHPHWGPAFELQSDGDIKLRVGHWVLSLGAPERKQALREAHARGETLDVQEYMAKWRDPEHRLASMDAAGQNAQVLSVPSHCYMYWAEPEFGVPFAKKVNDSLAEYCSAAPDRLMFWAHAPLNVPKEAAKEIRRACTELGAKGLVAGGSNFGGLEFDSPEMDPVWEALCDLDLPMFVHGYNQSVTWGEEANTDRYETTAIVGMNYDESKCFWYMINGGVFDRFPNLKVYITHGGGFVPYQLGRMAQTNPNLDTYHNKKPFLEYLKNFYFDVELHEVPMRQAMVEVIGADRVLYGSNFGGSDAVRHDLTDDLKLSQEDLDKIRWKNACDLLHLDPNKLGKVRG	Low	Low
86 (protein, listed as Sphingopyxis alaskensis) MALGASVASREASAQMAKAPMRKIATEEAFATPELAKAWLEIARSEPNSSLDIPTGILSIFDNPRPGSNQDRFRRQLLDVDAERIRDMDEAGVDMQLLSVTIPGVQIFEPARAGELAVTTNDHLAAAIARRPTRFAGLACFAPHDPVQATREMERAVNALGLKGFIVNSHTQDLYLDDPRFAPVLEAAQSLDCPIYLHPRAPSNGMAAPFRDYSMGGSIWGFGVEAGTHAVRMILSGVFDRYPRLRIVLGHMGEALPFWMWRLDHMAARRAKDGRMKPLSLAPSEYFKRNFAVTTSGFESPDVLDLVIKVAGIENIMWAIDYPYESSRDAVTFIEGADLTASQRASIFHRNAVRHFRLS	Low	Low
82 (protein, listed as Rhodopseudomonas palustris) MAQNETPVIAIEEHYWDPEMVARFPAGENASPFSTLLTELGDVRLRAMDEAGIDVQVLSHGAPAAQKLPPDVAPELTRRVNDRLAEACARFPNRFAAFAALPTPAPEAAARELERCVRDLGFKGAMIHGLTNGLFIDDKRFWPIFEVAEKLDVPIYLHPSVPHADVTRYYYDDYAREFPTVIRPAWGFTVETATQAIRLILSRALESYPRLQIILGHLGETLPFLLWRINQALARPGQTPLDFRKQFCDHFHVTTSGFFSTPALICTMLELGIDRIMFAVDYPYVVNRDGTDWVQQLQISPDDKRKLVGGNARRLLKL	Low	Low
76 (protein, listed as Polymorphum gilvum) MAKKIDIFNHIWPEPFFKALIAHIGEMTDITMRSGAVPMMTNLDRRFEVMDMFGPDYMQVLSLASPPLEKLADPAKALELSRIGSDSLAELCQRYPERFPAFIGTAPLSNPAAVVGECRRAIEDLGAAGMQIFTNVAGKPLDLAEFEPFFEYMASAGKPVWLHPARGEAFADYQTEKRSEYEIWWTFGWPYETSAAMARLVFSRMFDKYPGLKVITHHAGGMVPFFEGRVGPGWDQMGARTTDRDLAAVRKALKRPHLDYFKEFYADTASFGSRKAIEHAIEFFGEDRVLFASDAPFDPEGGPMYIRETMRCIDSLDLTDAQRRKIYHGNATALLGLSL	No	No
84 (protein, listed as Mycobacterium rhodesiae) MASLIALEEHYAWDPASEGNVVATWLRANNGVAYDRLYDRGPLRIEQMDAAGIDFQILSLFDPGVQDEVDAVRAVDLARRANDDLAESVRANPSRFGGFATLATQQPDAAVAEFDRAVTELGLVGGLINGHCQGRYLDDPAYEALFSRAEALGAPIYLHPTTPHPAVMDAWFAPYVGDGLHLASWGFAAETGTHVLRLIYSGLFDKFPRLQMIIGHLGEMLPFAAYRIDRYYGLGGGGTGHTLQHLPSDYLRNNFHVTTSGNFCSPALDCTLDVMGADRVMFSVDYPMDDNQTGADFLASYPMDDTNRRKVASENALRLFGDRIPAALRN	Low	Low
81 (protein, listed as Verticillium dahliae) MAASTKPKVVDIHTHMYPPSYIDILTSRTAIPVVRTFPQAADPRLILLDAEQQALDAALQDPTAKPPGRPLTSHYASLDQKIHFMDTHSIDISVVSLANPWLDFIEPKEAAATARSVNDEFEAMCASQPGRLFFFAALPLTAPLPALLEAVRHVAELEHCRGVILGTSGLGSGLDDPELVPVLEAVAAAALTVFLHPHYGLPNDVWGPRASAEYGHVLPLALGFPMETTIAVARMYLAGVFDRVPALRMLLAHSGGTLPFLAGRIESCILHDGQLVAEGKVGAARRTIWDVLREQVYLDAVIYSEIGLKAAIAASGGADRLMFGTDHPFFPPLGTDEQAKKESRINAGGSRPMITGNAMINGHGGLCNHITQSDYQDVVL	High	High
77 (protein, Burkholderia xenovorans) MALIDLHAHAPHPGYYNQHPHWGPFFERHEDGDVKLRVGDWILTLGSPERKALVRAGKGPTVEEYQARWADPKVRLAGMDAAGQNAQVVSVPSHCYMYWAEKEFSVPFATKVNDTFAEYCSAAPDRLMFWAHAALNAPEQAALELRRACTELGAKGLVAGGANFGGLEFDSPELDPVWKVLCDLDLPMFIHGYNQSVTWGKKANDDRYETTAIVGMQYDETRCFWNLVCGGVLDRFPGLKVYITHGGGYVPYQLGRLAQCNGNLDVAHNKKPVLEYLKNNFYFDVELHEVPMRQALIDIIGADRVLYGSNFGGSDAVRHDLTEGLRLSDDDLQKIRWKNACKLLHLDPAKIGEPAKKQAVSA	No	No
